The values that follow come from patent publication US7312060.

Data set [1] has as its target N- and C-terminally tagged APC protein (cell-free expressed, Example 45) (UniProt P25054).
Data set [2] concerns N- and C-terminally tagged MDM (cell-free expressed).
Data set [3] concerns N- and C-terminally tagged PKA (cell-free expressed).

Chain of UniProt P25054 (P25054 1098-1696): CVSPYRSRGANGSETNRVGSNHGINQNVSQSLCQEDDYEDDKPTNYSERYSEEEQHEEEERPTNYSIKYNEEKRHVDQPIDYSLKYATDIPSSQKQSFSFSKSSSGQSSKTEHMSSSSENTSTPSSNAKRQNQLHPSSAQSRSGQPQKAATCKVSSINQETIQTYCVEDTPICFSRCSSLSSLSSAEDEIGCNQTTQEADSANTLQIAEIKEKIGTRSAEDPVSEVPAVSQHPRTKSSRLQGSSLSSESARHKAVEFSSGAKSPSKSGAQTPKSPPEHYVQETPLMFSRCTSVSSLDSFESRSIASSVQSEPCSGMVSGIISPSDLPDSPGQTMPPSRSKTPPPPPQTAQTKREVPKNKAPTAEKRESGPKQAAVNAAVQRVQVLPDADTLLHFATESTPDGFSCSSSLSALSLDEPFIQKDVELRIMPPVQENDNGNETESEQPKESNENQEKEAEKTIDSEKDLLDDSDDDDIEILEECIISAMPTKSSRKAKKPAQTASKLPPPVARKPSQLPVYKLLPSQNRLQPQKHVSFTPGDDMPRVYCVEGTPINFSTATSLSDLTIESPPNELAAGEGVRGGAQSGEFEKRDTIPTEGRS

Caspase-3: the “protease substrate degradation monitored by ELISA” value in data set [1] is recorded as “degraded ... in a time-dependent manner”; in data set [2], “degraded ... in a time-dependent manner”; in data set [3], “unaffected”.
